Substrate: Nc1ncnc2c1ncn2[C@@H]1O[C@H](COP(=O)(O)OP(=O)(O)OP(=O)(O)O)[C@@H](O)[C@H]1O
Experiment: intrinsic ATPase kinetics by malachite green assay (Km)
Format: biochemical, Homo sapiens
Settings: Mg2+ ([…] MgCl2 in the assay) ATP-binding site

B1: Death-associated protein kinase 1 (DAPK1) (Homo sapiens) (protein)
chain: MTVFRQENVDDYYDTGEELGSGQFAVVKKCREKSTGLQYAAKFIKKRRTKSSRRGVSREDIEREVSILKEIQHPNVITLHEVYENKTDVILILELVAGGELFDFLAEKESLTEEEATEFLKQILNGVYYLHSLQIAHFDLKPENIMLLDRNVPKPRIKIIDFGLAHKIDFGNEFKNIFGTPEFVAPEIVNYEPLGLEADMWSIGVITYILLSGASPFLGDTKQETLANVSAVNYEFEDEYFSNTSALAKDFIRRLLVKDPKKRMTIQDSLQHPWIKPKDTQQALS
notes: catalytic domain, residues 1–285
Km: 21 ± 2.4 µM
kcat: 0.012 ± 8.5e-05 s⁻¹
kcat/Km: 733 ± 71.7 M⁻¹ s⁻¹

Source: publication PMC7792996, “Crystal structure of death-associated protein kinase 1 in complex with the dietary compound resveratrol” (IUCrJ, 2021)
